Data taken from patent US20060171935A1, “Protecting cell therapy for neurological disorders including Parkinson's disease” (priority 2005, published 2006).

T1: citrate synthase (CS) (Sus scrofa, UniProt P00889)
T1 construct: purchased Sigma
T1 sequence (P00889 28-464): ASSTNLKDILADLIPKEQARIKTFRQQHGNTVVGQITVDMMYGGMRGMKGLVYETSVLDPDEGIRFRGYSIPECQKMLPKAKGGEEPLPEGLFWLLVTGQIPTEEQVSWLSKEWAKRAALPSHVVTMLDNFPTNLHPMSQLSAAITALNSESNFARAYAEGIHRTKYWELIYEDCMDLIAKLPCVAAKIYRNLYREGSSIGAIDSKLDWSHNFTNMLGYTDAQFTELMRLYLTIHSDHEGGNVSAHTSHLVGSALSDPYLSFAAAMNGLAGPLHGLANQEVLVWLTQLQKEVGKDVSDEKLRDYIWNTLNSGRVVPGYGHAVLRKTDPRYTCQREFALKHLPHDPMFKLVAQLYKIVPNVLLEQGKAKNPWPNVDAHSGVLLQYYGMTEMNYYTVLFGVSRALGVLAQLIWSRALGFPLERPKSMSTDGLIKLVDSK


Columns and labels:
citrate synthase (CS) = target: T1, citrate synthase (CS); test: Suppression of heat-induced aggregation of citrate synthase (chaperone assay); assay type: biochemical; conditions: 0.8 μM CS, 43° C.
Description: To test the redox regulation of DJ-1, the inventors assayed chaperone activity in the CS aggregation assay in the presence or absence of the reducing agent DTT. […] (FIG. 22D). […] To further test whether redox regulation might govern DJ-1 chaperone activity, reactivation studies using reduced DJ-1 were performed. DTT-reduced DJ-1 was incubated with H2O2 (10 mM in aggregation buffer for 10 min at 4° C. followed by dialysis against aggregation buffer for 2 h), and subsequently chaperone activity was measured in the CS thermal aggregation assay. […] This was not an indirect effect of residual H2O2 on CS aggregation, as H2O2 treatment of CS increased aggregation (unpublished data).
CS aggregation was performed in 40 mM HEPES (pH 7.8), 20 mM potassium hydroxinde, 50 mM potassium chloride, and 10 mM ammonium sulfate, and monitored in a thermostat-controlled fluorescence spectrophotometer with excitation and emission wavelengths at 500 nm and slit widths at 2.5 nm. Insulin aggregation was performed as described (Giasson et al. 2000). CS, insulin, RNase A, and GST were obtained from Sigma; human Hsp27 was obtained from Stressgen.

[1] = test system: CAD murine neuroblastoma cells; test: Q333P NFL intracytoplasmic inclusions in CAD cells; assay type: cell-based; conditions: co-overexpression with Q333P mutant NFL
Description: In a separate set of experiments, the inventors assayed the ability of DJ-1 to inhibit aggregation of a second substrate, neurofilament light subunit (NFL). Overexpression of a mutant form of human NFL, Q333P, by transient transfection of CAD murine neuroblastoma cells, leads to the accumulation of intracytoplasmic inclusions (Perez-Olle et al. 2002).
(§1) Quantification of CAD cell aggregates was performed using a Zeiss LSM Pascal confocal microscope (Zeiss, Oberkochen, Germany) with a 20× long working distance lens. Images were imported to NIH Image J for analysis. Images from tenrandomly selected fields in each of three wells were quantified for each condition. Cells containing at least one intracytoplasmic aggregate, independent of size or number per cell, were scored as positive for aggregates. This number was divided by the number of transfected cells per field, determined by GFP fluorescence.

[2] = test system: CAD murine neuroblastoma cells; test: αSyn intracytoplasmic inclusions in CAD cells; assay type: cell-based; conditions: co-overexpression with αSyn
Description: To further evaluate αSyn aggregation, the inventors performed immunohistochemical analyses of CAD cells transfected with αSyn along with DJ-1 or control vector (FIG. 25). Overexpression of αSyn in neuroblastoma cells induces the formation of visible cytoplasmic aggregates (Lee and Lee 2002) (FIGS. 25J-25L).
as §1

DJ-1-deficient ES cells = test: Rescue of DJ-1-deficient ES cells from H2O2, MTT viability; assay type: cell-based, murine; conditions: transient transfection, 10 μM H2O2 for 15 h
Description: (A) DJ-1 cysteine-to-alanine mutants C106A, C53A, and a triple mutant that harbors mutations at all three cysteines in DJ-1 (C106A/C53A/C46A), as well as L166P, were tested for in vitro chaperone activity by CS aggregation suppression assay. (B) Self-association of DJ-1 cysteine mutants. Murine neuroblastoma CAD cells were transiently cotransfected with Flag-tagged human DJ-1 vectors (either WT or mutant) along with WT YFP-tagged human DJ-1. Lysates were immunoprecipitated with anti-Flag antibodies and probed by Western blotting with an antibody specific for human DJ-1. […] Lysates represent 20% of the input for the immunoprecipitate; Flag-DJ-1 migrates at 22 kDa, and YFP-DJ-1 migrates at 50 kDa. (C) DJ-1-deficient ES cells were transiently transfected with vector alone, WT DJ-1, or DJ-1 cysteine mutants, and exposed to 10 μM H2O2 for 15 h followed by MTT assay. The viability of the cells in the absence of drug treatment was not altered by the expression of WT or mutant DJ-1). Data are shown as the mean±SEM and were analyzed by ANOVA with Fisher's post-hoc test. *p<0.05.
To confirm that altered sensitivity to oxidative stress is a consequence of the loss of DJ-1, ‘rescue’ experiments by overexpressing wild-type or mutant human DJ-1 in ‘knockout’ ES cells were performed. Plasmids encoding human wild-type DJ-1, PD-associated L166P mutant DJ-1, or vector alone, were transiently transfected into DJ-1 deficient clones, and these were subsequently assayed for sensitivity to H2O2 using the MTT viability assay.
In Vivo Assays. ES cells plated in 96-well format (2.3×10^4 cells/well) were treated for 15 hours with H2O2 in ES media deficient in β-mercaptoethanol (Abeliovich et al. 2000). Cell viability (as a percent of untreated control) was determined by MTT assay in triplicate (Fezoui et al. 2000). Annexin V/Propidium Iodide (Molecular probes) staining was performed per the manufacturer's instructions. For dihydrorhodamine-123 staining (DHR, Molecular probes) (Walrand et al. 2003), cells were preincubated for 30 min with DHR (5 μM), washed with PBS, then treated with H2O2 in ES media deficient in β-mercaptoethanol for 15 min at 37° C. The FACS analysis was performed using a FACSTAR sorter (Becton Dickinson). Dopamine uptake assay was performed essentially as described (Farrer et al. 1998). Reported values represent specific uptake from which non-specific uptake, determined in the presence of mazindol, was subtracted, and normalized for protein content (BCA kit, Pierce).

CD thermal denaturation = assay type: physicochemical; conditions: CD at 222 nm, range studied 0-90° C.
Source text: (G) Redox regulation is unaffected by the C106A mutation.
Molecular chaperones typically display marked stability to thermal stress (Sastry et al. 2002). […] (FIG. 28).

[3] = test system: Undifferentiated ES cells; test: Q333P mutant NFL toxicity, MTT reduction, undifferentiated ES cells; assay type: cell-based; conditions: 72 h
Description: FIG. 30 depicts the additional studies of DJ-1 mutations. […] Cells from FIG. 4M were quantified via ToPro3 nuclear staining and are expressed as number of cells per field from ten independent fields in each of three wells. Data are shown as the mean±SEM and were analyzed by ANOVA with Fisher's post-hoc test. *p<0. […] GFP positive transfected cells from FIG. 5A-5L were quantified and are expressed as number of transfected cells per field from ten independent fields in each of three wells. Data are shown as the mean±SEM and were analyzed by ANOVA with Fisher's post-hoc test. *p<0. (C) Overexpression of WT DJ-1, but not L166P mutant DJ-1, rescues cells from Q333P mutant NFL toxicity. HeLa cells were transfected with Q333P mutant NFL along with WT human DJ-1, L166P mutant DJ-1, or vector control. After 72 h, cells were assayed by MTT reduction assay (which detects reduction of 3-(4,5-dimethylthiazol-2-yl)-2,5-diphenyltetrazolium bromide by metabolic enzymes) (Martinat et al. 2004). Data are shown as the mean±SEM and were analyzed by ANOVA with Fisher's post-hoc test. *p<0. […] Undifferentiated ES cells were transfected with Q333P mutant NFL along with WT human DJ-1, C53A mutant DJ-1, or vector control. After 72 h, cells were assayed by MTT reduction assay (Martinat et al. 2004). Data are shown as the mean±SEM and were analyzed by ANOVA with Fisher's post-hoc test. *p<0. […]

DY-1 ES cells = test: Candidate soluble factors in DY-1 ES cell differentiation to dopamine neurons; assay type: cell-based, murine; conditions: added at stages 4-5 of differentiation
Description: The availability of marked ES-derived ‘late’ dopamine neurons should facilitate the analysis of candidate soluble and cell-associated factors in the differentiation process. […] Briefly, DY-1 ES cells were differentiated using EB or SDIA and candidate factors were added to the standard differentiation protocol at stages 4-5 of differentiation (Lee et al., 2000).

| Molecule | suppression of heat-induced aggregation of CS (chaperone activity) (citrate synthase (CS)) | accumulation of NFL inclusions [1] | number of cells containing αSyn aggregates [2] | viability of DJ-1 knockout cells in the presence of H2O2 (DJ-1-deficient ES cells) | thermal unfolding transition (CD thermal denaturation) | rescue from Q333P mutant NFL toxicity [3] | generation of late dopamine neurons (eYFP fluorescence, DAT immunoreactivity, late DN markers) (DY-1 ES cells) |
| --- | --- | --- | --- | --- | --- | --- | --- |
| L166P DJ-1: Parkinsonism-associated L166P mutant of human DJ-1, recombinant or plasmid-expressed (protein, UniProt Q99497 1-189, looked up, variant L166P) MASKRALVILAKGAEEMETVIPVDVMRRAGIKVTVAGLAGKDPVQCSRDVVICPDASLEDAKKEGPYDVVVLPGGNLGAQNLSESAAVKEILKEQENRKGLIAAICAGPTALLAHEIGFGSKVTTHPLAKDKMMNGGHYTYSENRVEKDGLILTSRGPGTSFEFAPAIVEALNGKEVAAQVKAPLVLKD | abrogated chaperone activity | failed to inhibit | fails to do so | did not significantly alter the viability | does not exhibit a thermal unfolding transition | – | – |
| C53A: DJ-1 cysteine-to-alanine mutant at cysteine 53 (protein, UniProt Q99497 1-189, looked up, variant C53A) MASKRALVILAKGAEEMETVIPVDVMRRAGIKVTVAGLAGKDPVQCSRDVVIAPDASLEDAKKEGPYDVVVLPGGNLGAQNLSESAAVKEILKEQENRKGLIAAICAGPTALLAHEIGFGSKVTTHPLAKDKMMNGGHYTYSENRVEKDGLILTSRGPGTSFEFALAIVEALNGKEVAAQVKAPLVLKD | completely abrogates chaperone activity | – | – | failed to protect | – | unable to rescue | – |
| Noggin: soluble Noggin, inhibits BMP signaling (protein, UniProt Q13253 28-232, looked up) Noggin: QHYLHIRPAPSDNLPLVDLIEHPDPIFDPKEKDLNETLLRSLLGGHYDPGFMATSPPEDRPGGGGGAAGGAEDLAELDQLLRQRPSGAMPSEIKGLEFSEGLAQGKKQRLSKKLRRKLQMWLWSQTFCPVLYAWNDLGSRFWPRYVKVGSCFSKRSCSVPEGMVCKPSKSVHLTVLRWRCQRRGGQRCGWIPIQYPIISECKCSC | – | – | – | – | – | – | did not detect any effect |
